From paper PMC2879509

T1: MSL2-ΔRING (Drosophila melanogaster, UniProt P50534 1-40+86-773, internal_change)
T1 sequence: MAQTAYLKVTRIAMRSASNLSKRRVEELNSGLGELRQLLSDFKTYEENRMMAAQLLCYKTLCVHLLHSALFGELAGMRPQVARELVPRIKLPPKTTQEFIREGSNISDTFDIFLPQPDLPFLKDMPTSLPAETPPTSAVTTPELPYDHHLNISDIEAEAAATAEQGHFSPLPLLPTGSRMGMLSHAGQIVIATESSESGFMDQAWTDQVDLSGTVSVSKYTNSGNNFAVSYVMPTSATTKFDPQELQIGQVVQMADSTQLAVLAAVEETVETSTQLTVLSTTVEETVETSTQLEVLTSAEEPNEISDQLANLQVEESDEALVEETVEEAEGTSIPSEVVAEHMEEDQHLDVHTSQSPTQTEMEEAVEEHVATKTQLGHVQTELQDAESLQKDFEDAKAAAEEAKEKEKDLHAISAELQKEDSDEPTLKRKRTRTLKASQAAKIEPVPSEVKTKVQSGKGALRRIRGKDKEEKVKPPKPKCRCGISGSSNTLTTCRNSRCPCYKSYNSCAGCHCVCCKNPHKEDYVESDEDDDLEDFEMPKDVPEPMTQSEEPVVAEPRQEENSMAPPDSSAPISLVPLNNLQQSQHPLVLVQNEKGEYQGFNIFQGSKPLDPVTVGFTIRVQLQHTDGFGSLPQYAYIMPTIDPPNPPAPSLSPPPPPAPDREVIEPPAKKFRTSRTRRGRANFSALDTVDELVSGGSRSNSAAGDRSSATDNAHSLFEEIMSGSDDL

T2: MSL2-ΔCXC (Drosophila melanogaster, UniProt P50534 1-519+572-773, internal_change)
T2 sequence: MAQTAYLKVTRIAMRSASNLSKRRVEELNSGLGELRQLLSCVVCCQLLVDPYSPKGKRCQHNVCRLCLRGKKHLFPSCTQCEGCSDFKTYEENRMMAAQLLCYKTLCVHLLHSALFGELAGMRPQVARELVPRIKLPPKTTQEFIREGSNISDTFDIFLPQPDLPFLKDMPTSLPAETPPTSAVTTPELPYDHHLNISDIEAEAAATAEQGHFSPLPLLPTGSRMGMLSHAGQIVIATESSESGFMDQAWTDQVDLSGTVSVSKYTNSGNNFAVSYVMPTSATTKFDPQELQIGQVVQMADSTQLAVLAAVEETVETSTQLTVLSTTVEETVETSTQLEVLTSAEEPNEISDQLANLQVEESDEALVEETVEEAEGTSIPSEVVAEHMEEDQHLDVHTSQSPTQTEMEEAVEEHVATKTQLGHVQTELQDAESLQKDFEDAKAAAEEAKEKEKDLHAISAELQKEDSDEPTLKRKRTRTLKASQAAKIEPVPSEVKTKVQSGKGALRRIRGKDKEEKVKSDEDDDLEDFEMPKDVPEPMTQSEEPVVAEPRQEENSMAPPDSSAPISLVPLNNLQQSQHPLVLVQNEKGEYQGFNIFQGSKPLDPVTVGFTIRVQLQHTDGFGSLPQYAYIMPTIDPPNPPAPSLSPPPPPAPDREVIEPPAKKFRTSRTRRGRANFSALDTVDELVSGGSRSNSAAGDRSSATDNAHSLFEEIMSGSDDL

T3: MSL2 (Drosophila melanogaster, UniProt P50534 1-773)
T3 sequence: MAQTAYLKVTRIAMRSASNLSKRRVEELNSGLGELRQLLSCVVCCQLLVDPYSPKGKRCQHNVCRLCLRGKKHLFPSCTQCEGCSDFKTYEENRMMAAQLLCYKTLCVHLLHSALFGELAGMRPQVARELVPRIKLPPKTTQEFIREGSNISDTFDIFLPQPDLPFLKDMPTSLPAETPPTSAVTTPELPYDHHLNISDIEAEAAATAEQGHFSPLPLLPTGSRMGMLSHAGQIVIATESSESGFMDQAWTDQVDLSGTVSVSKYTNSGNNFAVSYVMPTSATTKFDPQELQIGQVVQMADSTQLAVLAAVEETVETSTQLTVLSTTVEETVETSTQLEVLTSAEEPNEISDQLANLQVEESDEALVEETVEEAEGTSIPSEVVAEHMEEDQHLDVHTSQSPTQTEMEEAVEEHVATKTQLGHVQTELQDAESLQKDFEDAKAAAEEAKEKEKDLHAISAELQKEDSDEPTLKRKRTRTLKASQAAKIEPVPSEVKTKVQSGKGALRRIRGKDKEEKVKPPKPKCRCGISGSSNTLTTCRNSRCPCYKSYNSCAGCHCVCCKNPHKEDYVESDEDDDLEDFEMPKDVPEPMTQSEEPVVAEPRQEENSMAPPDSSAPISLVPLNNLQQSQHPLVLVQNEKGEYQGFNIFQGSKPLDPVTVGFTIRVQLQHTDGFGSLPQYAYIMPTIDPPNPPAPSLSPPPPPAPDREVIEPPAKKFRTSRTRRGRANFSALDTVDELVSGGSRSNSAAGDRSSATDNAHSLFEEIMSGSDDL


What was measured:
[1] = target: MSL2-ΔPro/Bas (Drosophila melanogaster) (UniProt P50534); assay: EMSA
MSL2-ΔRING = target: T1, MSL2-ΔRING; assay: EMSA
MSL2-ΔCXC = target: T2, MSL2-ΔCXC; assay: EMSA
MSL2 [2] = target: T3, MSL2; assay: EMSA
MSL2 [3] = target: T3, MSL2; assay: competition

| Molecule | Kd [1] | Kd (MSL2-ΔRING) | Kd (MSL2-ΔCXC) | Kd (MSL2 [2]) | IC50 (MSL2 [3]) |
| --- | --- | --- | --- | --- | --- |
| UGCGGCCAUCUCUUUCGUUUUGAUGUUUCUACGCCAUGUG / CACAUGGCGUAGAAACAUCAAAACGAAAGAGAUGGCCGCA [DBF12-L15 dsRNA 40 bp] | 37 nM | – | – | – | – |
| DBF12-L15 dsRNA 40 bp (dsRNA) RNA 1: UGCGGCCAUCUCUUUCGUUUUGAUGUUUCUACGCCAUGUG RNA 2: CACAUGGCGUAGAAACAUCAAAACGAAAGAGAUGGCCGCA | – | 23 ± 5 nM | 29 ± 12 nM | 21 ± 4 nM | 36 ± 8 nM |
